According to article PMC12636033, “Chemical Engineering of Transcription Factors Uncovered Cell-Permeable μMax Modulators”:

How the values were obtained:
µMax20 = µMax20 (UniProt P61244); test: BLI; details: EMSA: 10 mM MES pH 6.0, 150 mM KCl, 1 mM MgCl2, 10% glycerol, room temperature, 1 uM DNA; BLI: global 1:1 fit, buffer not in material
WT Max = WT Max (Homo sapiens, UniProt P61244-2 13-93, M65Nle, norleucine written as M; other non-natural residues written as X); test: PBM; 50-200 nM protein; PBS, 2% milk, BSA, salmon testes DNA, 0.02% Triton X-100; details: chain copies: 2; label: surface-attached array probe
Chain of WT Max (P61244 other isoform, or with tags, fused parts or gaps M65Nle): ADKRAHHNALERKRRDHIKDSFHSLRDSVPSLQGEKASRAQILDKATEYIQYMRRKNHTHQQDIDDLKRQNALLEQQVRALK

µMax H19Y = µMax H19Y (UniProt P61244 22-102, H28Y); test: EMSA; 3 uM protein, 1 uM DNA; EMSA: 10 mM MES pH 6.0, 150 mM KCl, 1 mM MgCl2, 10% glycerol, room temperature, 1 uM DNA; BLI: global 1:1 fit, buffer not in material; details: chain copies: 2
Chain of µMax H19Y (P61244 22-102 H28Y): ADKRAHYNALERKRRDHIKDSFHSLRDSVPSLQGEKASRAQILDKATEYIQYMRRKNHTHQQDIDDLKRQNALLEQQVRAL

[1] = target: WT Max (synthetic µMax scaffold) (UniProt P61244 22-102); test: BLI; EMSA: 10 mM MES pH 6.0, 150 mM KCl, 1 mM MgCl2, 10% glycerol, room temperature, 1 uM DNA; BLI: global 1:1 fit, buffer not in material; details: chain copies: 2
Chain of WT Max (synthetic µMax scaffold) (P61244 22-102): as the sequence (P61244 22-102 H28Y) above, with Y7H counted along it

Chain of µMax20 (P61244 whole entry): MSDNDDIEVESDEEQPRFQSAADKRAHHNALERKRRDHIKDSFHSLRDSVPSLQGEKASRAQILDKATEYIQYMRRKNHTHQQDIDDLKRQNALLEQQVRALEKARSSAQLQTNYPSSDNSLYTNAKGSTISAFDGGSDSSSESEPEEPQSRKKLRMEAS

Row | Molecule | binding signal (WT Max) | further results
1 | CCGGCTGACACGTGGTATTAAT (double strand) [E-box DNA probe] | – | Kd (µMax20): 4.38 nM
2 | dBr_Jan07_34030 (dsDNA) DNA 1: GAACGAGGGACCGCTAGGATGCCACGTGATTAAAGTGTCTGTGTTCCGTTGTCCGTGCTG DNA 2: CAGCACGGACAACGGAACACAGACACTTTAATCACGTGGCATCCTAGCGGTCCCTCGTTC | 3.45 robust z of log adjusted intensity (ours), mean of two arrays | –
3 | dBr_Jan07_37076 (dsDNA) DNA 1: AAAACGTTCCGAGCCATTTAGAAGGGGTCACGTGATGTCTGTGTTCCGTTGTCCGTGCTG DNA 2: CAGCACGGACAACGGAACACAGACATCACGTGACCCCTTCTAAATGGCTCGGAACGTTTT | 3.31 robust z of log adjusted intensity (ours), mean of two arrays | –
4 | dBr_Jan07_27753 (dsDNA) DNA 1: TTTTCATACGAACTTCGAGCTCCCCACGTGGTTCTTGTCTGTGTTCCGTTGTCCGTGCTG DNA 2: CAGCACGGACAACGGAACACAGACAAGAACCACGTGGGGAGCTCGAAGTTCGTATGAAAA | 5.1 robust z of log adjusted intensity (ours), mean of two arrays | –
5 | dBr_Jan07_19348 (dsDNA) DNA 1: ACCTCTGTAAGTCTGAGTCTGATAACCACGTGTCGGGTCTGTGTTCCGTTGTCCGTGCTG DNA 2: CAGCACGGACAACGGAACACAGACCCGACACGTGGTTATCAGACTCAGACTTACAGAGGT | 5.01 robust z of log adjusted intensity (ours), mean of two arrays | –
6 | dBr_Jan07_01852 (dsDNA) DNA 1: AGGAGTCTTGCCGCACGGTCCCCGTCTTATGCACGTGTCTGTGTTCCGTTGTCCGTGCTG DNA 2: CAGCACGGACAACGGAACACAGACACGTGCATAAGACGGGGACCGTGCGGCAAGACTCCT | 3.5 robust z of log adjusted intensity (ours), mean of two arrays | –
7 | dBr_Jan07_01656 (dsDNA) DNA 1: TCGATCACACACGTGCTTATTGTACCAAACACATACGTCTGTGTTCCGTTGTCCGTGCTG DNA 2: CAGCACGGACAACGGAACACAGACGTATGTGTTTGGTACAATAAGCACGTGTGTGATCGA | 3.68 robust z of log adjusted intensity (ours), mean of two arrays | –
8 | dBr_Jan07_40162 (dsDNA) DNA 1: CCTTGAACCATTAGCACGTGGATATATAAATCTTACGTCTGTGTTCCGTTGTCCGTGCTG DNA 2: CAGCACGGACAACGGAACACAGACGTAAGATTTATATATCCACGTGCTAATGGTTCAAGG | 3.32 robust z of log adjusted intensity (ours), mean of two arrays | –
9 | dBr_Jan07_15201 (dsDNA) DNA 1: TTGCCTGGGATTAGATTCTACGCTCACGATGCACGTGTCTGTGTTCCGTTGTCCGTGCTG DNA 2: CAGCACGGACAACGGAACACAGACACGTGCATCGTGAGCGTAGAATCTAATCCCAGGCAA | 3.45 robust z of log adjusted intensity (ours), mean of two arrays | –
10 | dBr_Jan07_24740 (dsDNA) DNA 1: ATAGAGCGTCAGAATAGTGACATACACGTGGTCCCCGTCTGTGTTCCGTTGTCCGTGCTG DNA 2: CAGCACGGACAACGGAACACAGACGGGGACCACGTGTATGTCACTATTCTGACGCTCTAT | 3.51 robust z of log adjusted intensity (ours), mean of two arrays | –
11 | dBr_Jan07_23401 (dsDNA) DNA 1: TCTATGCTCGCGGATGCCCTTAAACTAGGCACGTGTGTCTGTGTTCCGTTGTCCGTGCTG DNA 2: CAGCACGGACAACGGAACACAGACACACGTGCCTAGTTTAAGGGCATCCGCGAGCATAGA | 3.69 robust z of log adjusted intensity (ours), mean of two arrays | –
12 | dBr_Jan07_30456 (dsDNA) DNA 1: GGCGTTGTCAGGAAGGATTGGCTGTCGTCAACACGTGTCTGTGTTCCGTTGTCCGTGCTG DNA 2: CAGCACGGACAACGGAACACAGACACGTGTTGACGACAGCCAATCCTTCCTGACAACGCC | 3.62 robust z of log adjusted intensity (ours), mean of two arrays | –
13 | dBr_Jan07_14484 (dsDNA) DNA 1: CTGCAGTTCTACTGTATCCACGACATAGAGACACGTGTCTGTGTTCCGTTGTCCGTGCTG DNA 2: CAGCACGGACAACGGAACACAGACACGTGTCTCTATGTCGTGGATACAGTAGAACTGCAG | 5.27 robust z of log adjusted intensity (ours), mean of two arrays | –
14 | dBr_Jan07_31967 (dsDNA) DNA 1: GTGTCACGTGTCGTTCATCCTTATTAACTAGGGTCTGTCTGTGTTCCGTTGTCCGTGCTG DNA 2: CAGCACGGACAACGGAACACAGACAGACCCTAGTTAATAAGGATGAACGACACGTGACAC | 3.79 robust z of log adjusted intensity (ours), mean of two arrays | –
15 | dBr_Jan07_18911 (dsDNA) DNA 1: ACAAACCCCGCACGTGCCTTCGCCCCCTCCTATGCGGTCTGTGTTCCGTTGTCCGTGCTG DNA 2: CAGCACGGACAACGGAACACAGACCGCATAGGAGGGGGCGAAGGCACGTGCGGGGTTTGT | 3.79 robust z of log adjusted intensity (ours), mean of two arrays | –
16 | dBr_Jan07_27761 (dsDNA) DNA 1: ATATCGACCTTTTATTGAAAACCGGGAGTCTCACGTGTCTGTGTTCCGTTGTCCGTGCTG DNA 2: CAGCACGGACAACGGAACACAGACACGTGAGACTCCCGGTTTTCAATAAAAGGTCGATAT | 3.44 robust z of log adjusted intensity (ours), mean of two arrays | –
17 | dBr_Jan07_31500 (dsDNA) DNA 1: CTCCGTGGGTTCGTGAGTTCATGGCGAAAAGCACGTGTCTGTGTTCCGTTGTCCGTGCTG DNA 2: CAGCACGGACAACGGAACACAGACACGTGCTTTTCGCCATGAACTCACGAACCCACGGAG | 4.51 robust z of log adjusted intensity (ours), mean of two arrays | –
18 | E-box DNA probe (dsDNA) DNA 1: CCGGCTGACACGTGGTATTAAT DNA 2: ATTAATACCACGTGTCAGCCGG | – | binding result (µMax H19Y): binds; Kd [1]: 8.1 ± 2.24 nM
19 | dBr_Jan07_06713 (dsDNA) DNA 1: AGTAACGGGGTCGCTTGATGGGCTCTTCCGCGTGGAGTCTGTGTTCCGTTGTCCGTGCTG DNA 2: CAGCACGGACAACGGAACACAGACTCCACGCGGAAGAGCCCATCAAGCGACCCCGTTACT | 3.79 robust z of log adjusted intensity (ours), mean of two arrays | –
20 | dBr_Jan07_02206 (dsDNA) DNA 1: GGCAGTCGGTCGTTCCAGATATTAGGATCTCCACGTGTCTGTGTTCCGTTGTCCGTGCTG DNA 2: CAGCACGGACAACGGAACACAGACACGTGGAGATCCTAATATCTGGAACGACCGACTGCC | 3.71 robust z of log adjusted intensity (ours), mean of two arrays | –
21 | dBr_Jan07_04601 (dsDNA) DNA 1: GGTGTACGCTAAGGATGCTACTACGACCTAACACGTGTCTGTGTTCCGTTGTCCGTGCTG DNA 2: CAGCACGGACAACGGAACACAGACACGTGTTAGGTCGTAGTAGCATCCTTAGCGTACACC | 3.7 robust z of log adjusted intensity (ours), mean of two arrays | –
22 | dBr_Jan07_34042 (dsDNA) DNA 1: GCCGAAAGTCCCCCACGTGGTCAGTAAAAGAGAAGAGTCTGTGTTCCGTTGTCCGTGCTG DNA 2: CAGCACGGACAACGGAACACAGACTCTTCTCTTTTACTGACCACGTGGGGGACTTTCGGC | 4.32 robust z of log adjusted intensity (ours), mean of two arrays | –
23 | dBr_Jan07_17964 (dsDNA) DNA 1: ACTTGAATGAGGGCCTTTGATCTGCTTTACTCACGTGTCTGTGTTCCGTTGTCCGTGCTG DNA 2: CAGCACGGACAACGGAACACAGACACGTGAGTAAAGCAGATCAAAGGCCCTCATTCAAGT | 3.59 robust z of log adjusted intensity (ours), mean of two arrays | –
24 | dBr_Jan07_38976 (dsDNA) DNA 1: CGACACAGAAAACAATTCCGACTTGCTTTCCGCGTGGTCTGTGTTCCGTTGTCCGTGCTG DNA 2: CAGCACGGACAACGGAACACAGACCACGCGGAAAGCAAGTCGGAATTGTTTTCTGTGTCG | 3.81 robust z of log adjusted intensity (ours), mean of two arrays | –
25 | dBr_Jan07_38389 (dsDNA) DNA 1: CAAGCCTATCGCGGCCAATCGGTAAGCACGTGACTAGTCTGTGTTCCGTTGTCCGTGCTG DNA 2: CAGCACGGACAACGGAACACAGACTAGTCACGTGCTTACCGATTGGCCGCGATAGGCTTG | 3.67 robust z of log adjusted intensity (ours), mean of two arrays | –
26 | dBr_Jan07_33198 (dsDNA) DNA 1: GCATAAACAAGGCCGCTGTAGCGGTTCGGTGCACGTGTCTGTGTTCCGTTGTCCGTGCTG DNA 2: CAGCACGGACAACGGAACACAGACACGTGCACCGAACCGCTACAGCGGCCTTGTTTATGC | 3.33 robust z of log adjusted intensity (ours), mean of two arrays | –
